Experimental data as given in patent US20260209359A1 (NEXTERA, published 2026).
Positions count from the first letter of the chain named.

B1: AM1 scDb (bispecific antibody)
chain: DIRVTQSPSSLSASVGDRVTITCRADVHIYWYLNWYQQKPGKAPKLLIYAASSLQSGVPSRFSGSGSGTDFTLTISSLQPEDFATYYCQQSYSTPYTFGQGTKLEIKGGGGSEVQLQQSGPELVKPGASMKISCKASGYSFTGYTMNWVKQSHGKNLEWMGLINPYKGVSTYNQKFKDKATLTVDKSSSTAYMELLSLTSEDSAVYYCARSGYYGDSDWYFDVWGAGTTVTVSSGGGGSGGGGSGGGGSDIQMTQTTSSLSASLGDRVTISCRASQDIRNYLNWYQQKPDGTVKLLIYYTSRLHSGVPSKFSGSGSGTDYSLTISNLEQEDIATYFCQQGNTLPWTFAGGTKLEIKGGGGSQVQLVQSGAEVKKPGASVKVSCKVSGYTLTELSMHWVRQAPGKGLEWMGGFDPEDGETIYAQKFQGRVTMTEDTSTDTAYMELSSLRSEDTAVYYCATDQGSSWGFYWGQGTLVTVSS
notes: VLA-VHB-VLB-VHA, anti-CD3 UCHT1
B2: AM4 scDb (bispecific antibody)
chain: B1 chain with V27I, H28D, Y30R
notes: as m68
B3: AMC4 scDb (bispecific antibody)
chain: B1 chain with V27H, Y30F, Y388P, T389K, T391Y, L393V, S463A
notes: as m68
B4: AM3 scDb (bispecific antibody)
chain: B1 chain with V27H, Y30F
notes: as m68
B5: AM5 scDb (bispecific antibody)
chain: B1 chain with D26S, V27Q, H28S, Y30S, W31S, S91A, S93R, T94I, G369V, T459A
notes: as m68
B6: AMC3 scDb (bispecific antibody)
chain: B1 chain with D26S, V27Q, H28N, Y30M, Y388P, T389K, T391Y, L393V, S463A
notes: as m68
B7: AMC7 scDb (bispecific antibody)
chain: B1 chain with D26S, V27Q, H28N, Y30M, Y388P, T389K, T391Y, L393V
notes: as m68
B8: AMC10 scDb (bispecific antibody)
chain: DIQLTQSPSSLSASVGDRVTITCRASQNIMWYLNWYQQKPGKAPKLLIYAASGLQSGVPSRFSGSGSGTDFTLTISSLQPEDFATYYCQQSYSTPFTFGPGTKVDIKGGGGSEVQLQQSGPELVKPGASMKISCKASGYSFTGYTMNWVKQSHGKNLEWMGLINPYKGVSTYNQKFKDKATLTVDKSSSTAYMELLSLTSEDSAVYYCARSGYYGDSDWYFDVWGAGTTVTVSSGGGGSGGGGSGGGGSDIQMTQTTSSLSASLGDRVTISCRASQDIRNYLNWYQQKPDGTVKLLIYYTSRLHSGVPSKFSGSGSGTDYSLTISNLEQEDIATYFCQQGNTLPWTFAGGTKLEIKGGGGSQVQLVQSGAEVKKPGASVKVSCKVSGYTLTELSMHWVRQAPGKGLEWMGGFDPEDGETIYAQKFQGRVTMTEDTSTDTAYMELSSLRSEDTAVYYCATDQGSSWGFYWGQGTLVTVSS
notes: as m68
B9: AMC5 scDb (bispecific antibody)
chain: B1 chain with V27I, H28D, Y30R, Y388P, T389K, T391Y, L393V, S463A
notes: as m68
B10: AMC12 scDb (bispecific antibody)
chain: DIRVTQSPSSLSASVGDRVTITCRASQNIMWYLNWYQQKPGKAPKLLIYAASSLQSGVPSRFSGSGSGTDFTLTISSLQPEDFATYYCQQAYRIPYTFGQGTKLEIKGGGGSEVQLQQSGPELVKPGASMKISCKASGYSFTGYTMNWVKQSHGKNLEWMGLINPYKGVSTYNQKFKDKATLTVDKSSSTAYMELLSLTSEDSAVYYCARSGYYGDSDWYFDVWGAGTTVTVSSGGGGSGGGGSGGGGSDIQMTQTTSSLSASLGDRVTISCRASQDIRNYLNWYQQKPDGTVKLLIYYTSRLHSGVPSKFSGSGSGTDYSLTISNLEQEDIATYFCQQGNTLPWTFAGGTKLEIKGGGGSQVQLVQSGAEVKKPGASVKVSCKVSGPKLYEVSMHWVRQAPGKGLEWMGGFDPEDGETIYAQKFQGRVTMTEDTSTDTAYMELSSLRSEDTAVYYCATDQGASWGFYWGQGTLVTVSS
notes: as m68
B11: AM12 scDb (bispecific antibody)
chain: B1 chain with D26S, V27Q, H28N, Y30M, D416Q, S463A
notes: as m68
B12: AMC11 scDb (bispecific antibody)
chain: B10 chain with P388Y, K389T, Y391T, V393L, A463S
notes: as m68
B13: AM18 scDb (bispecific antibody)
chain: B1 chain with V4L, A13V, D26S, V27E, H28D, Y30R, W31Y, L33V
notes: as m68
B14: AMC14 scDb (bispecific antibody)
chain: B10 chain with A463S
notes: as m68
B15: AMC1 scDb (bispecific antibody)
chain: DIRLTQSPSSLSASVGDRVTMTCRASQTVATYVNWYQQKPGRAPKLLMYVTSIRQSEVPSRFSGDGFGTDFTLTINPLQPDDFATYYCQQAYSTPVTFGQGTKLEIKGGGGSEVQLQQSGPELVKPGASMKISCKASGYSFTGYTMNWVKQSHGKNLEWMGLINPYKGVSTYNQKFKDKATLTVDKSSSTAYMELLSLTSEDSAVYYCARSGYYGDSDWYFDVWGAGTTVTVSSGGGGSGGGGSGGGGSDIQMTQTTSSLSASLGDRVTISCRASQDIRNYLNWYQQKPDGTVKLLIYYTSRLHSGVPSKFSGSGSGTDYSLTISNLEQEDIATYFCQQGNTLPWTFAGGTKLEIKGGGGSQVQLVQSGAEVKKPGASVKVSCKVSGPKLYEVSMHWVRQAPGKGLEWMGGFDPEDGETIYAQKFQGRVTMTEDTSTDTAYMELSSLRSEDTAVYYCATDQGASWGFYWGQGTLVTVSS
notes: as m68
B16: AMC6 scDb (bispecific antibody)
chain: B15 chain with A463S
notes: as m68
B17: AM16 scDb (bispecific antibody)
chain: B8 chain with T22S, N28S, W31T, K39R, A50S, G53R, S67Y, D70E
notes: as m68

Biological target: T1, HLA-A*02:01/MAGE-A4^230-239, soluble recombinant biotinylated pHLA (human, UniProt P04439 25-299 at identity 0.94); P61769 21-119, biotinylated)
T1 construct: Empty biotinylated HLA-A2 monomers (Tetramer Shop) loaded with synthetic peptide; also called MAGE-A4 pMHC; MAGE-A4-pHLA
Experiment: ELISA, soluble biotinylated pHLA on neutravidin, scDb, protL-HRP
Protocol: ELISA plates were coated with 5 μg/mL NeutrAvidin in PBS and incubated 16 h/4° C. (step (a)) and blocked with 5% skim milk powder in PBST for 1 h/room temperature (RT) (step (c)). […] Bound phage particles were detected with an anti-Fd antibody (anti-M13-HRP (Amersham Biosciences)), whereas bound IgG1 and scDb was detected with HRP conjugated protein L (Genscript) (step (i)). […] Plates were developed with TMB solution and read at 450 nm using a microplate reader (step (k)). Between each layer, the plates were washed 3× with PBST (steps (b), (d), (f), (h), and (j)).

| Binder | EC50 [nM] |
| --- | --- |
| B1 | 0.36 |
| B2 | 0.28 |
| B3 | 0.36 |
| B4 | 0.48 |
| B5 | 1.03 |
| B6 | 0.35 |
| B7 | 0.41 |
| B8 | 0.46 |
| B9 | 0.32 |
| B10 | 0.25 |
| B11 | 0.12 |
| B12 | 0.81 |
| B13 | 0.51 |
| B14 | 0.47 |
| B15 | 0.45 |
| B16 | 0.61 |
| B17 | 1.85 |

Biological target: T2, HLA-A*02:01/MAGE-A4^230-239 displayed on cells (MAGE-A4^230-239 pulsed T2 cells; NCI-H1703, A375, THP1, … (human, UniProt P04439 25-365 at identity 0.94); P61769 21-119)
Experiment: cell-based or functional assay

| Binder | IFNγ EC50 vs. target positive cells (pM) |
| --- | --- |
| B1 | 11.8 |
| B2 | 4.5 |
| B3 | 9.2 |
| B4 | 5.8 |
| B5 | 9 |
| B6 | 7.3 |
| B7 | 8.5 |
| B8 | 1.7 |
| B9 | 8 |
| B10 | 6.9 |
| B11 | 6.4 |
| B12 | 8.5 |
| B13 | 9.5 |
| B14 | 8.2 |
| B15 | 3.6 |
| B16 | 8.6 |
| B17 | 12.3 |

Biological target: T2, HLA-A*02:01/MAGE-A4^230-239 displayed …
Experiment: cell-based or functional assay
Remark: another data set of the same source

| Binder | EC50 vs. NCI-H1703 (pM), T-cell specific killing [pM] |
| --- | --- |
| B1 | 6.4 |
| B2 | 3.1 |
| B4 | 3.4 |
| B5 | 6.4 |
| B11 | 4.3 |
| B12 | 0.72 |
| B13 | 4.4 |
| B17 | 5.3 |

Biological target: T2, HLA-A*02:01/MAGE-A4^230-239 displayed …
Experiment: cell-based or functional assay
Remark: another data set of the same source

| Binder | EC50 vs. A375 (pM), T-cell specific killing [pM] |
| --- | --- |
| B12 | 2.3 |
